Consider six molecules from article PMC8573386 (Frontiers in Immunology, 2021).

Experiment [1] concerns the target T1, EGFR on EGFR-overexpressing tumor cell line A431 (Homo sapiens, A431 cells, UniProt P00533). Put plainly: cell-based or functional assay.
The target in experiment [2] is T1, EGFR on EGFR-overexpressing tumor cell …. Put plainly: flow cytometry on cells; EGFR-positive A431 cells incubated 1 h on ice with antibody derivatives 0.05 nM to 1 µM, detected with Alexa Fluor 488 Fab goat antihuman IgG (H+L); apparent binding affinities. The settings on record: one partner purified. In general terms: In flow cytometry, cells or beads pass a laser one at a time.

Positions count from the first letter of the chain named.

B1: 60C03 IgG (antibody)
VH: QVQLRESGPSLVKPSQTLSLTCTASGFSLSDKAVGWVRQAPGKALEWLGGIDTGGSTGYNPGLKSRLSITKDNSKSQVSLSVSSVTTEDSATYYCTTVHQETKKENSCPDGYTSGVECRFRGYTCANDGCWRVCSFTTCSGWMPASDTYRYEYHVDAWGQGLLVTVSS
VL: EAVLNQPSSVSGSLGQRVSITCSGSSSNVGNGYVSWYQLIPGSAPRTLIYGDTSRASGVPDRFSGSRSGNTATLTISSLQAEDEADYFCASAEDSSSNAVFGSGTTLTVL
notes: synthetic bovine IGHV1-7 (VHBUL) scaffold, FR1 to FR3; ultralong CDR-H3 (stalk and knob) of clone 60C03 from immunised cattle; FR4 of the synthetic VH domain; human IgG1 heavy chain constant regions; bovine VL (V30, VLλ30) deduced from PDB entries that share a CDR-identical light chain; human constant lambda region (CLλ); chimeric IgG1; all clones share one fixed light chain and VH scaffold and …
Regarding B1, in experiment [1], the “ADCC EC50 killing: NK cell-mediated lysis of EGFR-overexpressing A431 cells, E:T 5:1” value (shortened to “ADCC EC50 killing”) was determined as 0.0265 nM and the “ADCC mean max killing of A431 cells (normalized to Cetuximab)” value worked out at 103%. Further, the EC50 (in general, the concentration giving half of the maximal effect) in experiment [2] turned out to be 3 nM.

B2: 60E11 IgG (antibody)
VH: QVQLRESGPSLVKPSQTLSLTCTASGFSLSDKAVGWVRQAPGKALEWLGGIDTGGSTGYNPGLKSRLSITKDNSKSQVSLSVSSVTTEDSATYYCTTVHQRTRKTCPDGWRDGSDCPYGHRCGDYDCCGYGCYDGRGTNRFTGVVESYTYEWYVDAWGQGLLVTVSS
VL: B1 VL
notes: synthetic bovine IGHV1-7 (VHBUL) scaffold, FR1 to FR3; ultralong CDR-H3 (stalk and knob) of clone 60E11 from immunised cattle; FR4 of the synthetic VH domain; human IgG1 heavy chain constant regions; as the light chain of m3: bovine VL (V30, VLλ30) deduced from PDB entries that share a CDR-identical light chain; human constant lambda region (CLλ); chimeric IgG1; also called chimeric bovine × …
On to B2, for which, in experiment [1], the “ADCC EC50 killing” value was determined as 0.0033 nM and the “ADCC mean max killing of A431 cells (normalized to Cetuximab)” value is 96%. In experiment [2], the EC50 turned out to be 10.1 nM.

B3: 60C08 IgG (antibody)
VH: QVQLRESGPSLVKPSQTLSLTCTASGFSLSDKAVGWVRQAPGKALEWLGGIDTGGSTGYNPGLKSRLSITKDNSKSQVSLSVSSVTTEDSATYYCTTVHQKTIETTQKTCPDGYFYADTCWAYSCRCRDCDCCRSSGGCTYSRDSHTATYEWHVDAWGQGLLVTVSS
VL: B1 VL
notes: synthetic bovine IGHV1-7 (VHBUL) scaffold, FR1 to FR3; ultralong CDR-H3 (stalk and knob) of clone 60C08 from immunised cattle; FR4 of the synthetic VH domain; human IgG1 heavy chain constant regions; as the light chain of m3: bovine VL (V30, VLλ30) deduced from PDB entries that share a CDR-identical light chain; human constant lambda region (CLλ); chimeric IgG1; also called chimeric bovine × …
As to B3, in experiment [1], the “ADCC EC50 killing” value was 0.0587 nM and the “ADCC mean max killing of A431 cells (normalized to Cetuximab)” value amounted to 92.1%. Besides, the 50% effective concentration (EC50) in experiment [2] was found to be 0.9 nM.

B4: 60H05 IgG (antibody)
VH: B1 VH with E101K, K103N, E105L, N106K
VL: B1 VL
notes: synthetic bovine IGHV1-7 (VHBUL) scaffold, FR1 to FR3; ultralong CDR-H3 (stalk and knob) of clone 60H05 from immunised cattle; FR4 of the synthetic VH domain; human IgG1 heavy chain constant regions; as the light chain of m3: bovine VL (V30, VLλ30) deduced from PDB entries that share a CDR-identical light chain; human constant lambda region (CLλ); chimeric IgG1; also called chimeric bovine × …
On to B4, for which, in experiment [1], the “ADCC EC50 killing” value turned out to be 0.0164 nM and the “ADCC mean max killing of A431 cells (normalized to Cetuximab)” value was found to be 105%. Further, the half-maximal effective concentration (EC50) in experiment [2] was determined as 2.6 nM.

B5: 60F06 IgG (antibody)
VH: QVQLRESGPSLVKPSQTLSLTCTASGFSLSDKAVGWVRQAPGKALEWLGGIDTGGSTGYNPGLKSRLSITKDNSKSQVSLSVSSVTTEDSATYYCTTVHQRTEKIAKCPDGYSDARHCRDGCDCFGWDCFRSGAWAECYYEVYTYVHTYEHHVDAWGQGLLVTVSS
VL: B1 VL
notes: synthetic bovine IGHV1-7 (VHBUL) scaffold, FR1 to FR3; ultralong CDR-H3 (stalk and knob) of clone 60F06 from immunised cattle; FR4 of the synthetic VH domain; human IgG1 heavy chain constant regions; as the light chain of m3: bovine VL (V30, VLλ30) deduced from PDB entries that share a CDR-identical light chain; human constant lambda region (CLλ); chimeric IgG1; also called chimeric bovine × …
For B5, in experiment [1], the “ADCC EC50 killing” value amounted to 0.0048 nM and the “ADCC mean max killing of A431 cells (normalized to Cetuximab)” value amounted to 108%. Also, in experiment [2], the 50% effective concentration (EC50) was determined as 3 nM.

B6: 60D01 IgG (antibody)
VH: QVQLRESGPSLVKPSQTLSLTCTASGFSLSDKAVGWVRQAPGKALEWLGGIDTGGSTGYNPGLKSRLSITKDNSKSQVSLSVSSVTTEDSATYYCTTVHQETTKTASCPDGYAEHFGRGWGYWGCGGCDCCQENGAGGGWGNCGLYSTSYTYEHHIDAWGQGLLVTVSS
VL: B1 VL
notes: synthetic bovine IGHV1-7 (VHBUL) scaffold, FR1 to FR3; ultralong CDR-H3 (stalk and knob) of clone 60D01 from immunised cattle; FR4 of the synthetic VH domain; human IgG1 heavy chain constant regions; as the light chain of m3: bovine VL (V30, VLλ30) deduced from PDB entries that share a CDR-identical light chain; human constant lambda region (CLλ); chimeric IgG1; also called chimeric bovine × …
For the molecule B6, in experiment [1], the “ADCC EC50 killing” value stood at 0.606 nM and the “ADCC mean max killing of A431 cells (normalized to Cetuximab)” value was found to be 76.3%. For the same molecule, the 50% effective concentration (EC50) in experiment [2] amounted to 1.3 nM.
